Test results as given in article PMC9482650, “Quantitative fragmentomics allow affinity mapping of interactomes” (Nature Communications, 2022).

T1: HTRA4, P83105
T1 sequence (P83105 378-476, limits assumed, looked up): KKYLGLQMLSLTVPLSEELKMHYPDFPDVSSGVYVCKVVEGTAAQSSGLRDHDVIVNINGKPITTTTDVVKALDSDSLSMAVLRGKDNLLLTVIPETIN

T2: LNX2_2, Q8N448
T2 sequence (Q8N448 334-432, limits assumed, looked up): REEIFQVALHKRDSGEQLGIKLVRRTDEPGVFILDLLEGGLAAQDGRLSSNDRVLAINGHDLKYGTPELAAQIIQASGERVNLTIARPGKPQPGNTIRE

T3: PTPN13_1, Q12923
T3 sequence (Q12923 1088-1188, limits assumed, looked up): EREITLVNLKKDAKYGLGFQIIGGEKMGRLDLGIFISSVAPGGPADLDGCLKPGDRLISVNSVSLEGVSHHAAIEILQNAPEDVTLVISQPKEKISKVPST

T4: APBA3_1, O96018
T4 sequence (O96018 389-490, limits assumed, looked up): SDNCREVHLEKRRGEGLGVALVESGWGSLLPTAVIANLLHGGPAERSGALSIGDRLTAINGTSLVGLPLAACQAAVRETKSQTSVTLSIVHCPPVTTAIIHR

T5: APBA2_2, Q99767
T5 sequence (Q99767 654-744, limits assumed, looked up): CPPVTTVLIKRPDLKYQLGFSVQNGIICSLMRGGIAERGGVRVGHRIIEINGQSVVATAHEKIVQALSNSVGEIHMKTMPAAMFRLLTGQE

T6: MPDZ_12, O75970
T6 sequence (O75970 1857-1958, limits assumed, looked up): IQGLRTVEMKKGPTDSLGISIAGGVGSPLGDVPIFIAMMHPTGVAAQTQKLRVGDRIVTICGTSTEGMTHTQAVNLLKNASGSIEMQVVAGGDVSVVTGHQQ

T7: RAPGEF6, Q8TEU7
T7 sequence (Q8TEU7 525-625, limits assumed, looked up): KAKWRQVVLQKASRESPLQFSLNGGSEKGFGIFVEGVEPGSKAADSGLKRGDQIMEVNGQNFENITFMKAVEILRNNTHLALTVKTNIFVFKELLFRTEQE

T8: GRIP1_5, Q9Y3R0
T8 sequence (Q9Y3R0 568-668, limits assumed, looked up): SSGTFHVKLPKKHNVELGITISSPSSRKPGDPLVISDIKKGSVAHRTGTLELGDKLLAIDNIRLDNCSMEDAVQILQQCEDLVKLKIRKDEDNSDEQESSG

T9: PDZD7_3, Q9H5P4
T9 sequence (Q9H5P4 857-944, limits assumed, looked up): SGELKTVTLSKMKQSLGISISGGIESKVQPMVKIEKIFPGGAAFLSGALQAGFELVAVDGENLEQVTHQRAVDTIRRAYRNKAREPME

T10: NHERF3_4, Q5T2W1
T10 sequence (Q5T2W1 373-468, limits assumed, looked up): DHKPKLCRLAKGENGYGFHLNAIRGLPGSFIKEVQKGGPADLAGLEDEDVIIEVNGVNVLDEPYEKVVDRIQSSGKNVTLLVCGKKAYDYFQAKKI

T11: SHANK1, Q9Y566
T11 sequence (Q9Y566 658-767, limits assumed, looked up): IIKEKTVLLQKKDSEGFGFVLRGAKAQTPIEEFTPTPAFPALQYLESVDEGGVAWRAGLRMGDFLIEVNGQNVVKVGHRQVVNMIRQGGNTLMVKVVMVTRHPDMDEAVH

B1: KIRREL1, Q96J84 (peptide)
chain: RFQQRMQTHV
B2: CCRL2, O00421 (peptide)
chain: REEPDHSTEV
B3: SRC, P12931 (peptide)
chain: EPQYQPGENL

molecular target: MAGI2_5, Q86UL8; test: holdup assay; design: key: below the threshold = too weak to quantify, mostly under pKd 3.1 to 4; details: plain residues with an end cap or a label only (N-terminal biotin on a linker: ado-ado)
Sequence (Q86UL8 915-1017): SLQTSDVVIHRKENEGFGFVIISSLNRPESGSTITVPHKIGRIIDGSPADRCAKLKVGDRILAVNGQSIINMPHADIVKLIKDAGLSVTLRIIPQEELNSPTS

Binder | pKd
B1 | 3.74
B2 | 4.68
B3 | below the threshold

molecular target: T1, HTRA4, P83105; test: holdup assay; design: key: below the threshold = too weak to quantify, mostly under pKd 3.1 to 4; details: plain residues with an end cap or a label only (N-terminal biotin on a linker: ado-ado)

Binder | pKd
B1 | 4.14
B2 | below the threshold
B3 | 3.9

molecular target: Inadl_9, Q8NI35; test: holdup assay; design: key: below the threshold = too weak to quantify, mostly under pKd 3.1 to 4; details: plain residues with an end cap or a label only (N-terminal biotin on a linker: ado-ado)
Sequence (Q8NI35 1530-1615): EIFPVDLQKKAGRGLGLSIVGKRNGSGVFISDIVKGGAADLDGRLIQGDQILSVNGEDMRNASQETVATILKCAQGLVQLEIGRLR

Binder | pKd
B1 | below the threshold
B2 | 4
B3 | below the threshold

molecular target: T2, LNX2_2, Q8N448; test: holdup assay; design: key: below the threshold = too weak to quantify, mostly under pKd 3.1 to 4; details: plain residues with an end cap or a label only (N-terminal biotin on a linker: ado-ado)

Binder | pKd
B1 | 4.08
B2 | 4.09
B3 | below the threshold

molecular target: PDZRN4_1, Q6ZMN7; test: holdup assay; design: key: below the threshold = too weak to quantify, mostly under pKd 3.1 to 4; details: plain residues with an end cap or a label only (N-terminal biotin on a linker: ado-ado)
Sequence (Q6ZMN7 213-318): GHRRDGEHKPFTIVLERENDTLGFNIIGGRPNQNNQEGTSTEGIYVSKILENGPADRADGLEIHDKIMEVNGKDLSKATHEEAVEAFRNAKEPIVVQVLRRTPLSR

Binder | pKd
B1 | below the threshold
B2 | 4.17
B3 | 3.52

molecular target: Inadl_1, Q8NI35; test: holdup assay; design: key: below the threshold = too weak to quantify, mostly under pKd 3.1 to 4; details: plain residues with an end cap or a label only (N-terminal biotin on a linker: ado-ado)
Sequence (Q8NI35 113-229): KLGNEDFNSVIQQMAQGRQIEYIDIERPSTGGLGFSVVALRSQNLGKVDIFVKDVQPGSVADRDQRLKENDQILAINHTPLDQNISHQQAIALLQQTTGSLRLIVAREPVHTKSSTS

Binder | pKd
B1 | below the threshold
B2 | below the threshold
B3 | below the threshold

molecular target: T3, PTPN13_1, Q12923; test: holdup assay; design: key: below the threshold = too weak to quantify, mostly under pKd 3.1 to 4; details: plain residues with an end cap or a label only (N-terminal biotin on a linker: ado-ado)

Binder | pKd
B1 | below the threshold
B2 | below the threshold
B3 | below the threshold

molecular target: LIMK2, P53671; test: holdup assay; design: key: below the threshold = too weak to quantify, mostly under pKd 3.1 to 4; details: plain residues with an end cap or a label only (N-terminal biotin on a linker: ado-ado)
Sequence (P53671 143-248): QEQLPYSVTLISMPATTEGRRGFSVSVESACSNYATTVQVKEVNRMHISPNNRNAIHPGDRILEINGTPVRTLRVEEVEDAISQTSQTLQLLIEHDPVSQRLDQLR

Binder | pKd
B1 | below the threshold
B2 | below the threshold
B3 | below the threshold

molecular target: LNX1_2, Q8TBB1; test: holdup assay; design: key: below the threshold = too weak to quantify, mostly under pKd 3.1 to 4; details: plain residues with an end cap or a label only (N-terminal biotin on a linker: ado-ado)
Sequence (Q8TBB1 371-470): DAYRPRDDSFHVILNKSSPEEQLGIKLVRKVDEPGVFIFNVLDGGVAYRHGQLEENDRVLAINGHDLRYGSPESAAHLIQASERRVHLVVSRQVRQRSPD

Binder | pKd
B1 | below the threshold
B2 | 3.65
B3 | below the threshold

molecular target: PTPN3, P26045; test: holdup assay; design: key: below the threshold = too weak to quantify, mostly under pKd 3.1 to 4; details: plain residues with an end cap or a label only (N-terminal biotin on a linker: ado-ado)
Sequence (P26045 505-587): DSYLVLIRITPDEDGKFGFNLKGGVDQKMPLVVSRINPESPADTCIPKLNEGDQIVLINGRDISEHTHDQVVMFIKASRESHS

Binder | pKd
B1 | 4.2
B2 | 4.79
B3 | below the threshold

molecular target: DLG4_2, P78352; test: holdup assay; design: key: below the threshold = too weak to quantify, mostly under pKd 3.1 to 4; details: plain residues with an end cap or a label only (N-terminal biotin on a linker: ado-ado)
Sequence (P78352 155-259): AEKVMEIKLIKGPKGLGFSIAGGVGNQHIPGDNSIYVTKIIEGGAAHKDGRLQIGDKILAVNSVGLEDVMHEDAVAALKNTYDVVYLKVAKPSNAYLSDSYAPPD

Binder | pKd
B1 | 4.64
B2 | 4.66
B3 | below the threshold

molecular target: T4, APBA3_1, O96018; test: holdup assay; design: key: below the threshold = too weak to quantify, mostly under pKd 3.1 to 4; details: plain residues with an end cap or a label only (N-terminal biotin on a linker: ado-ado)

Binder | pKd
B1 | below the threshold
B2 | below the threshold
B3 | below the threshold

molecular target: T5, APBA2_2, Q99767; test: holdup assay; design: key: below the threshold = too weak to quantify, mostly under pKd 3.1 to 4; details: plain residues with an end cap or a label only (N-terminal biotin on a linker: ado-ado)

Binder | pKd
B1 | below the threshold
B2 | below the threshold
B3 | below the threshold

molecular target: T6, MPDZ_12, O75970; test: holdup assay; design: key: below the threshold = too weak to quantify, mostly under pKd 3.1 to 4; details: plain residues with an end cap or a label only (N-terminal biotin on a linker: ado-ado)

Binder | pKd
B1 | below the threshold
B2 | below the threshold
B3 | below the threshold

molecular target: T7, RAPGEF6, Q8TEU7; test: holdup assay; design: key: below the threshold = too weak to quantify, mostly under pKd 3.1 to 4; details: plain residues with an end cap or a label only (N-terminal biotin on a linker: ado-ado)

Binder | pKd
B1 | below the threshold
B2 | below the threshold
B3 | below the threshold

molecular target: DLG1_1, Q12959; test: holdup assay; design: key: below the threshold = too weak to quantify, mostly under pKd 3.1 to 4; details: plain residues with an end cap or a label only (N-terminal biotin on a linker: ado-ado)

Binder | pKd
B1 | 4.17
B2 | 4.49
B3 | below the threshold

molecular target: MAGI2_6, Q86UL8; test: holdup assay; design: key: below the threshold = too weak to quantify, mostly under pKd 3.1 to 4; details: plain residues with an end cap or a label only (N-terminal biotin on a linker: ado-ado)
Sequence (Q86UL8 1141-1229): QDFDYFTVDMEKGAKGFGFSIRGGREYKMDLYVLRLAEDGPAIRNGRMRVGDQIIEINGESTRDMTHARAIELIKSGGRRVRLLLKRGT

Binder | pKd
B1 | below the threshold
B2 | 4.71
B3 | 3.84

molecular target: T8, GRIP1_5, Q9Y3R0; test: holdup assay; design: key: below the threshold = too weak to quantify, mostly under pKd 3.1 to 4; details: plain residues with an end cap or a label only (N-terminal biotin on a linker: ado-ado)

Binder | pKd
B1 | below the threshold
B2 | below the threshold
B3 | below the threshold

molecular target: LNX1_1, Q8TBB1; test: holdup assay; design: key: below the threshold = too weak to quantify, mostly under pKd 3.1 to 4; details: plain residues with an end cap or a label only (N-terminal biotin on a linker: ado-ado)
Sequence (Q8TBB1 261-371): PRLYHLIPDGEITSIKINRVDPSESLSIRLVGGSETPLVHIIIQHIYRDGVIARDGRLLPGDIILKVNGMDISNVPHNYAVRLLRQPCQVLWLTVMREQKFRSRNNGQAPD

Binder | pKd
B1 | below the threshold
B2 | 4.09
B3 | below the threshold

molecular target: DLG2_2, Q15700; test: holdup assay; design: key: below the threshold = too weak to quantify, mostly under pKd 3.1 to 4; details: plain residues with an end cap or a label only (N-terminal biotin on a linker: ado-ado)
Sequence (Q15700 189-283): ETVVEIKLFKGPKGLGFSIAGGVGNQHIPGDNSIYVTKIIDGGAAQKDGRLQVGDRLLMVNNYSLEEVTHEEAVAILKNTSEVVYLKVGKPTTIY

Binder | pKd
B1 | 4.44
B2 | 4.5
B3 | below the threshold

molecular target: T9, PDZD7_3, Q9H5P4; test: holdup assay; design: key: below the threshold = too weak to quantify, mostly under pKd 3.1 to 4; details: plain residues with an end cap or a label only (N-terminal biotin on a linker: ado-ado)

Binder | pKd
B1 | 4.5
B2 | 4.31
B3 | below the threshold

molecular target: T10, NHERF3_4, Q5T2W1; test: holdup assay; design: key: below the threshold = too weak to quantify, mostly under pKd 3.1 to 4; details: plain residues with an end cap or a label only (N-terminal biotin on a linker: ado-ado)

Binder | pKd
B1 | below the threshold
B2 | below the threshold
B3 | below the threshold

molecular target: AHNAK1, Q09666; test: holdup assay; design: key: below the threshold = too weak to quantify, mostly under pKd 3.1 to 4; details: plain residues with an end cap or a label only (N-terminal biotin on a linker: ado-ado)
Sequence (Q09666 4-100): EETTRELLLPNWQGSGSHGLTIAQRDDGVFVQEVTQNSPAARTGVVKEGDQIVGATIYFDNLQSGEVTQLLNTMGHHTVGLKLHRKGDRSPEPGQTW

Binder | pKd
B1 | below the threshold
B2 | below the threshold
B3 | below the threshold

molecular target: FRMPD4, Q14CM0; test: holdup assay; design: key: below the threshold = too weak to quantify, mostly under pKd 3.1 to 4; details: plain residues with an end cap or a label only (N-terminal biotin on a linker: ado-ado)
Sequence (Q14CM0 67-160): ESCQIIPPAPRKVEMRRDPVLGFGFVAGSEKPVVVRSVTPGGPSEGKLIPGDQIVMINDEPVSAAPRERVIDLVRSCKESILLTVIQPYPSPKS

Binder | pKd
B1 | below the threshold
B2 | 3.47
B3 | 4.12

molecular target: T11, SHANK1, Q9Y566; test: holdup assay; design: key: below the threshold = too weak to quantify, mostly under pKd 3.1 to 4; details: plain residues with an end cap or a label only (N-terminal biotin on a linker: ado-ado)

Binder | pKd
B1 | 4.16
B2 | 4.13
B3 | below the threshold

molecular target: Inadl_3, Q8NI35; test: holdup assay; design: key: below the threshold = too weak to quantify, mostly under pKd 3.1 to 4; details: plain residues with an end cap or a label only (N-terminal biotin on a linker: ado-ado)
Sequence (Q8NI35 359-469): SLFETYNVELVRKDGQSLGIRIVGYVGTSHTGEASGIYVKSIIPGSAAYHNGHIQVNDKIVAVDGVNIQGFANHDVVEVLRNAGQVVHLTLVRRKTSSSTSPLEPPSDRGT

Binder | pKd
B1 | below the threshold
B2 | 3.85
B3 | below the threshold

molecular target: DLG4_3, P78352; test: holdup assay; design: key: below the threshold = too weak to quantify, mostly under pKd 3.1 to 4; details: plain residues with an end cap or a label only (N-terminal biotin on a linker: ado-ado)
Sequence (P78352 306-403): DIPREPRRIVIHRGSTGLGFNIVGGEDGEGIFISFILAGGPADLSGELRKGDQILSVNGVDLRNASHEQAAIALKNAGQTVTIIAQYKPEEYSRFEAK

Binder | pKd
B1 | 4.4
B2 | below the threshold
B3 | below the threshold
